In assay [1] the target is murine IGF-1R(1-903)-Fc (murine; human) (UniProt Q60751). Nature of the assay: SPR.
For assay [2] the target is unchanged. Nature of the assay: SPR, Fab over receptor-Fc captured on M13-C06 surface. Background: SPR reads the build-up and loss of mass on a sensor chip optically.

murine IGF-1R(1-903)-Fc (murine; human), sequence (Q60751 31-933 limits assumed, form in doubt): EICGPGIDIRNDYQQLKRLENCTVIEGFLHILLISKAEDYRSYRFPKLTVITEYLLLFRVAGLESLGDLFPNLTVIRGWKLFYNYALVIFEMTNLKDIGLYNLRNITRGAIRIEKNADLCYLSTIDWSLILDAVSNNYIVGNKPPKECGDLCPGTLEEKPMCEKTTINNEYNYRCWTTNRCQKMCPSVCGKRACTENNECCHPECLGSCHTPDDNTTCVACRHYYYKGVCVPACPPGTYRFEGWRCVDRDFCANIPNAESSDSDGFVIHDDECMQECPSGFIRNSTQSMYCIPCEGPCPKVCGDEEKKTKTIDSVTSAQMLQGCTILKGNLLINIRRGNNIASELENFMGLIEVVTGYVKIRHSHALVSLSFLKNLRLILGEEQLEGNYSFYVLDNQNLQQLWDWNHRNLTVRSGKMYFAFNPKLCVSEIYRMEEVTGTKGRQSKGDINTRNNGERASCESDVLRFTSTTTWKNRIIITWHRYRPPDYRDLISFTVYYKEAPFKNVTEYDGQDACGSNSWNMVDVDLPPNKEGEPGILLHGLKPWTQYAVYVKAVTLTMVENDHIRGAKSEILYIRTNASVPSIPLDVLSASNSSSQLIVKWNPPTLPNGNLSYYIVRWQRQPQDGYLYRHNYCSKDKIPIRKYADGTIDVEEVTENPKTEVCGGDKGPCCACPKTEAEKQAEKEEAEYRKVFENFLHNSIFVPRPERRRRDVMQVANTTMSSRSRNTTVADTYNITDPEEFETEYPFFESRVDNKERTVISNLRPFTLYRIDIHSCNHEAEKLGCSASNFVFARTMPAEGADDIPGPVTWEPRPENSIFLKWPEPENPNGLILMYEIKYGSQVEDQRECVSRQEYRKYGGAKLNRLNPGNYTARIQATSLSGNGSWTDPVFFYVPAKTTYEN

B1: M13-C06 Fab (Fab, V domains shown)
VH: EVQLLESGGGLVQPGGSLRLSCAASGFTFSIYRMQWVRQAPGKGLEWVSGISPSGGTTWYADSVKGRFTISRDNSKNTLYLQMNSLRAEDTAVYYCARWSGGSGYAFDIWGQGTMVTVSS
VL: DIQMTQSPLSLSASVGDRVTITCQASRDIRNYLNWYQQKPGKAPKLLIYDASSLQTGVPSRFGGSGSGTDFSFTIGSLQPEDIATYYCQQFDSLPHTFGQGTKLEIK
For the molecule B1, the fold decrease in binding against human IGF-1R in assay [1] worked out at 100 fold. Besides, the Biacore Relative RUmax in assay [2] is 0.

The record behind these values is patent US20090092614A1.
